# Laboratory results: US20210139581A1 (Alector, published 2021)
# Residue numbers refer to the chain shown, from its start. Where two headings read alike, the source gives them in different places.
# B1: Chimeric Ab (antibody, V domains shown)
# VH: EVQLQQSGPELVKPGASVKISCKASGYTFTDYNLHWVKLSHGKSLEWIGFIYPSNGITGYNQKFKNKATLTVDNSSSTAYMELRSLTSEDSAVYYCARSTVDYFDYWGQGTTLTVSS
# VL: DIVLTQSPASLAVSLGQRATMSCRASQSVSTSTYSYMHWYQQKPGQPPKLLIKYASNLESGVPARFSGSGSGTDFTLNIHPVEEEDTATYYCQHSWEIPLTFGAGTKLELK
# notes: Chimeric antibody with the variable regions of murine 2F5.1; also called parental antibody; comparator antibody
# B2: AB-H14 (antibody, V domains shown)
# VH: QVQLVQSGAEVKKPGASVKVSCKASGYTFTDYNLHWVRQAPGQGLEWIGFIYPSNGITGYAQKFQGRVTMTVDTSTSTVYMELSSLRSEDTAVYYCARSTVDYFDYWGQGTLVTVSS
# VL: DIQMTQSPSSLSASVGDRVTITCRASQSVSTSTYSYMHWYQQKPGKAPKLLIKYASNLESGVPSRFSGSGSGTDFTLTISSLQPEDFATYYCQHSWEIPLTFGQGTKLEIK
# notes: Humanized variant of murine 2F5.1
# B3: AB-64.1.2 (antibody, V domains shown)
# VH: B2 VH with V20I, G56R, V68A, M70L, T74N, V79A, T100D, V113L
# VL: DIVLTQSPDSLAVSLGERATINCRASQSVSTSTYSYMHWYQQKPGQPPKLLIKYASNLESGVPDRFSGSGSGTDFTLTISSLQAEDVAVYYCQHSWEIPLTFGQGTKLEIK
# notes: Variant of AB-64.1
# B4: AB-63.5 (antibody, V domains shown)
# VH: B2 VH with L34N, T100D
# VL: B3 VL
# B5: AB-64.1 (antibody, V domains shown)
# VH: B2 VH with V20I, V68A, M70L, T74N, V79A, T100D, V113L
# VL: B3 VL
# B6: AB-H64 (antibody, V domains shown)
# VH: B2 VH with V20I, V68A, M70L, T74N, V79A, V113L
# VL: B3 VL
# notes: Humanized variant of murine 2F5.1; also called parental humanized antibody
# B7: AB-63.4 (antibody, V domains shown)
# VH: B2 VH with L34Y
# VL: B3 VL
# B8: AB-64.1.8 (antibody, V domains shown)
# VH: B2 VH with V20I, G56Q, V68A, M70L, T74N, T76A, V79A, T100D, V113L
# VL: B3 VL
# notes: Variant of AB-64.1
# B9: AB-63.6 (antibody, V domains shown)
# VH: B2 VH
# VL: B3 VL with S28D
# Experiments:
# human CD33 [1] = target: T1, human CD33 (human, UniProt P20138 18-259, limits assumed); assay: SPR (BIAcore), Fab over CD33 on C1 chip
# T1 construct: Human CD33 immobilized on the BLI sensor tip or the BIAcore C1 chip; also called Siglec-3
# T1 sequence (P20138 18-259 limits assumed): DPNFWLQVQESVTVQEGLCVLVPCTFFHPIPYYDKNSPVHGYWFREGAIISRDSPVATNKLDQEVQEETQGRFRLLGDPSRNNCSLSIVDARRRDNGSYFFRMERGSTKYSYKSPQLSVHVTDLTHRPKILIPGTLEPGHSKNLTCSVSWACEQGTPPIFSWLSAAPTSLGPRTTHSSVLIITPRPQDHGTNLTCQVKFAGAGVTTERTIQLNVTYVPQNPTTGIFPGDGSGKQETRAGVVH
# [2] = target: T2, human CD33 on primary human monocyte-derived dendritic cells (human, UniProt P20138 18-364); assay: cell-based or functional assay
# T2 sequence (P20138 18-364): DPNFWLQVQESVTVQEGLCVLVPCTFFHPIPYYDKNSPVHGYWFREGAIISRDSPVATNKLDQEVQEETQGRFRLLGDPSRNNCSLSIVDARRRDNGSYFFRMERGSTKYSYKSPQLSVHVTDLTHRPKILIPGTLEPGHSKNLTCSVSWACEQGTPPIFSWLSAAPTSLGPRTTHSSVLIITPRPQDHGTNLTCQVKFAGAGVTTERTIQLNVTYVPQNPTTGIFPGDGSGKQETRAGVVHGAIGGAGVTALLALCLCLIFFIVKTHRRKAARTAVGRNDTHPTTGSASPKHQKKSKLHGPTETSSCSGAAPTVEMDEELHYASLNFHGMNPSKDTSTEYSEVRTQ
# [3] = target: T2, human CD33 on primary human …; assay: cell-based or functional assay; remark: listed apart in the source
# human CD33 [4] = target: T1, human CD33; assay: BLI (ForteBio), Fab 100 nM on immobilized CD33
# Protocol: (§1) The affinities (KD) of the humanized antibodies for human CD33 were measured for each antibody by BioLayer Interferometry in a ForteBio assay according to standard techniques (Estep et al. (2013) MAbs 5(2): 270-8). […] The assay was carried out at room temperature.
# [5] = target: T2, human CD33 on primary human …; assay: cell-based or functional assay; remark: listed apart in the source
# human CD33 [6] = target: T1, human CD33; assay: SPR (BIAcore), Fab over CD33 on C1 chip; remark: listed apart in the source
# Protocol: The affinity parameters for 10 of the 88 humanized antibodies (AB-H1, AB-H3, AB-H6, AB-H11, AB-H22, AB-H24, AB-H26, AB-H63, AB-H64, and AB-H71) were measured in a separate experiment by a more sensitive technique, surface plasmon resonance (BIAcore), and compared to Chimeric Ab and Chimeric Ab #2. BIAcore measurements were performed as follows: human CD33 was immobilized on the surface of a C1 chip, and Fabs were injected for 300 s to monitor association, followed by a 900 s flow in running buffer to monitor dissociation. The Fabs were measured at 5 concentrations: a high concentration of 27 nM and 3-fold serial dilutions.
# In a separate experiment, as determined by the more sensitive BIAcore technique, affinity parameters of affinity matured antibodies derived from the humanized antibody AB-H64 were measured and were directly compared to that of the Chimeric Ab, according to the method described in Example 1 above.
# human CD33 [7] = target: T1, human CD33; assay: BLI (ForteBio), Fab 100 nM on immobilized CD33; remark: listed apart in the source
# [8] = target: T2, human CD33 on primary human …; assay: cell-based or functional assay; remark: listed apart in the source
# [9] = target: T2, human CD33 on primary human …; assay: cell-based or functional assay; remark: listed apart in the source
# human CD33 [10] = target: T1, human CD33; assay: ligand-blocking red blood cell solid adhesion assay: antibody pre-incubated on plate-bound CD33-Fc, then binding of red blood cells (sialic acid-containing CD33 ligands) read as peroxidase activity (TMB, 450 nm), relative to no antibody; blocked ligand: CD33 ligands on red blood cells
# Protocol: The affinity matured antibody, AB-64.1 and two of its variants, AB-64.1.2 and AB-64.1.8, were evaluated for their ability to compete with CD33 ligand for binding to CD33 using a red blood cell (RBC) solid adhesion assay, according to standard protocols (Kelm, et al. Current Biology, 1994). Red blood cells are highly decorated with glycoproteins containing sialic acids; therefore the ability of an antibody to block RBC binding to immobilized CD33 was used to determine ligand interference. Briefly, 96-well Immunolon plates were coated overnight with 5 μg/mL CD33-Fc, then were washed with PBS and blocked for one hour with binding buffer (PBS containing 0.25% BSA and 1 mM CaCl₂)). CD33 antibodies were added and incubated for one hour at room temperature with gentle rocking. After removal of unbound antibody, RBCs were added to each well at 3.0×10⁶ cells/mL and incubated at room temperature for one hour. Unbound RBCs were then carefully removed by washing three times with PBS, after which water was added to each well to induce hypotonic lysis of bound RBCs. The plate was transferred to −80° C. for 10 minutes, followed by 37° C. for 15 minutes. Quantification of bound RBCs was measured as peroxidase activity by adding TMB, followed by the addition of 2N sulfuric acid to stop the reaction. Signal was detected at 450 nm. Data was calculated as a percentage of RBC binding to plate-bound CD33-Fc in the absence of antibody.
# human CD33 [11] = target: T1, human CD33; assay: BLI (ForteBio), Fab 100 nM on immobilized CD33; remark: listed apart in the source
# Protocol: as §1
# The affinity parameters of two of the antibodies, 64.1.2 and 64.1.8, were measured in a separate experiment by BIAcore, where they were directly compared to the parental antibody, AB-64.1, the parental humanized antibody, AB-H64, and the Chimeric Ab.
# [12] = target: T2, human CD33 on primary human …; assay: cell-based or functional assay; remark: listed apart in the source
# human CD33 [13] = target: T1, human CD33; assay: BLI (ForteBio), Fab 100 nM on immobilized CD33; kon/koff columns printed 3 rows too low, assigned by koff/kon = printed KD of AB-63.5
# Protocol: as §1
# (§2) The affinities of AB-H14 and its affinity-matured variants (Table 15) and AB-H63 and its affinity-matured variants (Table 16), for human CD33 were measured by Fortebio assay according to the method described in Example 1 above.
# [14] = target: T2, human CD33 on primary human …; assay: cell-based or functional assay; remark: listed apart in the source
# human CD33 [15] = target: T1, human CD33; assay: BLI (ForteBio), Fab 100 nM on immobilized CD33; remark: listed apart in the source
# Protocol: as §1
# The affinities of AB-H64 and its variants (Table 5) for human CD33 were measured by Fortebio assay according to the method described in Example 1 above.
# [16] = target: T2, human CD33 on primary human …; assay: cell-based or functional assay; remark: listed apart in the source
# human CD33 [17] = target: T1, human CD33; assay: BLI (ForteBio), Fab 100 nM on immobilized CD33; kon/koff columns printed 3 rows too low, assigned by koff/kon = printed KD of AB-63.4
# Protocol: as §1, §2
# human CD33 [18] = target: T1, human CD33; assay: BLI (ForteBio), Fab 100 nM on immobilized CD33; kon/koff columns printed 3 rows too low, assigned by koff/kon = printed KD of AB-63.6
# Protocol: as §1, §2
Binder,Receptor downregulation (EC50) [2],Kd (human CD33 [4]),Maximal Downregulation (% CD33 remaining) [5],Receptor downregulation (EC50) [5],Kd (human CD33 [6]),koff (human CD33 [6]),kon (human CD33 [6]),Kd (human CD33 [7]),EC50 (human CD33 [10]),Kd (human CD33 [11]),Fold Change to AB-H64 (human CD33 [6]),Fold Change to Chimeric Ab (human CD33 [6]),Receptor downregulation (% remaining at 0.16 µg/mL antibody) [12],Fold affinity improvement over parental Ab (AB-H63) (human CD33 [7]),Maximal Downregulation (% CD33 remaining) [14],Receptor downregulation (EC50) [14],other results
B1,74.3 pM,5220 pM,24.1%,86.9 pM,1630 pM,0.00162 s⁻¹,995000 M⁻¹ s⁻¹,–,–,–,–,–,–,–,–,–,Kd (human CD33 [1]): 1630 pM; koff (human CD33 [1]): 0.00162 s⁻¹; kon (human CD33 [1]): 995000 M⁻¹ s⁻¹; Maximal Downregulation (% CD33 remaining) [3]: 24.1%; Receptor downregulation (EC50) [3]: 86.9 pM
B2,42 pM,3420 pM,–,–,–,–,–,2910 pM,–,–,–,–,–,–,–,–,koff (human CD33 [7]): 0.00115 s⁻¹; kon (human CD33 [7]): 397000 M⁻¹ s⁻¹; Maximal Downregulation (% CD33 remaining) [8]: 15%; Receptor downregulation (EC50) [8]: 151 pM
B3,–,–,24.8%,18.9 pM,185 pM,0.000507 s⁻¹,2.74e+06 M⁻¹ s⁻¹,–,550 pM,902 pM,11.6 fold,8.8 fold,32.4%,–,–,–,"fold increase in potency in decreasing cell surface CD33, against AB-H64 [9]: 1.5 fold; fold increase in potency in decreasing cell surface CD33, against Chimeric Ab [9]: 4.6 fold"
B4,–,–,–,–,–,–,–,619 pM,–,–,–,–,–,4.4 fold,16.5%,40.1 pM,koff (human CD33 [13]): 0.000524 s⁻¹; kon (human CD33 [13]): 847000 M⁻¹ s⁻¹
B5,–,–,27.3%,15.4 pM,105 pM,0.000485 s⁻¹,4.61e+06 M⁻¹ s⁻¹,–,710 pM,499 pM,20.4 fold,15.4 fold,37.2%,–,–,–,Fold affinity improvement over parental Ab (AB-H64) (human CD33 [15]): 3.23 fold; Kd (human CD33 [15]): 885 pM; Receptor downregulation (EC50) [16]: 18.5 pM
B6,13.7 pM,4080 pM,22.4%,29 pM,2150 pM,0.00221 s⁻¹,1.03e+06 M⁻¹ s⁻¹,–,–,–,–,0.76 fold,–,–,–,–,Fold Change to Chimeric Ab (human CD33 [1]): 0.76 fold; Kd (human CD33 [1]): 2150 pM; koff (human CD33 [1]): 0.00221 s⁻¹; kon (human CD33 [1]): 1.03e+06 M⁻¹ s⁻¹; Kd (human CD33 [15]): 2860 pM; Maximal Downregulation (% CD33 remaining) [3]: 22.4%; Receptor downregulation (EC50) [3]: 29 pM; Receptor downregulation (EC50) [16]: 36.6 pM
B7,–,–,–,–,–,–,–,718 pM,–,–,–,–,–,3.79 fold,17.6%,69.1 pM,koff (human CD33 [17]): 0.000581 s⁻¹; kon (human CD33 [17]): 809000 M⁻¹ s⁻¹
B8,–,–,30.1%,28.2 pM,175 pM,0.000634 s⁻¹,3.62e+06 M⁻¹ s⁻¹,–,620 pM,802 pM,12.3 fold,9.29 fold,32.7%,–,–,–,–
B9,–,–,–,–,–,–,–,304 pM,–,–,–,–,–,8.96 fold,17.1%,46.3 pM,koff (human CD33 [18]): 0.0002 s⁻¹; kon (human CD33 [18]): 658000 M⁻¹ s⁻¹
